Experimental data published in the supplement of paper PMC5998384.

Tests used:
[1] = tested on: HeLa Kyoto; assay: solubility in G1/S (NP-40 vs SDS abundance) (log2 ratio); higher = more soluble; conditions: cell cycle stage: G1/S
[2] = tested on: HeLa Kyoto; assay: solubility change mitosis vs G1/S (difference of NP-40 vs SDS log2 ratios) (log2 ratio difference); higher = more soluble in mitosis
[3] = tested on: HeLa Kyoto; assay: thermal stability score vs G1/S (z-score of summed log2 fold changes over temperatures); higher = more thermally stable than in G1/S
[4] = tested on: HeLa Kyoto; assay: melting temperature (median over replicates), in situ; higher = more thermally stable
[5] = cell cycle stage: early G1 (4.5 h after nocodazole release)
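Wherever melting temperature (median over replicates), in situ is given: HeLa Kyoto cells synchronized by double thymidine or nocodazole block, proteins quantified by TMT10plex mass spectrometry, three independent biological replicates.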
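Wherever solubility change mitosis vs G1/S (difference of NP-40 vs SDS log2 ratios) is given: synchronized HeLa Kyoto cells (double thymidine block for G1/S, nocodazole release for mitosis), protein amounts in NP-40 versus SDS lysates quantified by mass spectrometry, three biological replicates.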
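Wherever solubility in G1/S (NP-40 vs SDS abundance) is given: HeLa Kyoto cells arrested at G1/S by double thymidine block, proteins quantified by TMT10plex mass spectrometry in mild NP-40 versus SDS extracts, three biological replicates.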
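Wherever thermal stability score vs G1/S (z-score of summed log2 fold changes over temperatures) is given: synchronized HeLa Kyoto cells, proteins quantified by TMT10plex mass spectrometry, three biological replicates, mitosis taken 0.5 h after nocodazole release, G1/S directly after double thymidine block.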

Row | Sequence | solubility in G1/S (log2) [1] | solubility change mitosis (log2) [2] | thermal stability score [3, 5] | thermal stability score ([3]; cell cycle stage: mitosis) | melting temperature ([4]; cell cycle stage: G1/S) [°C] | melting temperature ([4]; cell cycle stage: mitosis) [°C]
1 | MAAAGAAVARSPGIGAGPALRARRSPPPRAARLPRLLVLLAAAAVGPGAGGAARLYRAGEDAVWVLDSGSVRGATANSSAAWLVQFYSSWCGHCIGYAPTWRALAGDVRDWASAIRVAALDCMEEKNQAVCHDYDIHFYPTFRYFKAFTKEFTTGENFKGPDRELRTVRQTMIDFLQNHTEGSRPPACPRLDPIQPSDVLSLLDNRGSHYVAIVFESNSSYLGREVILDLIPYESIVVTRALDGDKAFLEKLGVSSVPSCYLIYPNGSHGLINVVKPLRAFFSSYLKSLPDVRKKSLPLPEKPHKEENSEIVVWREFDKSKLYTVDLESGLHYLLRVELAAHKSLAGAELKTLKDFVTVLAKLFPGRPPVKKLLEMLQEWLASLPLDRIPYNAVLDLVNNKMRISGIFLTNHIKWVGCQGSRSELRGYPCSLWKLFHTLTVEASTHPDALVGTGFEDDPQAVLQTMRRYVHTFFGCKECGEHFEEMAKESMDSVKTPDQAILWLWKKHNMVNGRLAGHLSEDPRFPKLQWPTPDLCPACHEEIKGLASWDEGHVLTFLKQHYGRDNLLDTYSADQGDSSEGGTLARGEEEEKRLTPPEVSHGDRDTQSVRPPGALGPRPALPESLHHSLDGKLQSLDGPGAHKEVGGAAPFLGVDFSSLDMSLCVVLYVASSLFLMVMYFFFRVRSRRWKVKHHHPAV [QSOX2] | 0.207 | 0.252 | -2.12 | -0.982 | 54.7 | 54.9
2 | MAAAGGAEGRRAALEAAAAAAPERGGGSCVLCCGDLEATALGRCDHPVCYRCSTKMRVLCEQRYCAVCREELRQVVFGKKLPAFATIPIHQLQHEKKYDIYFADGKVYALYRQLLQHECPRCPELPPFSLFGDLEQHMRRQHELFCCRLCLQHLQIFTYERKWYSRKDLARHRMQGDPDDTSHRGHPLCKFCDERYLDNDELLKHLRRDHYFCHFCDSDGAQDYYSDYAYLREHFREKHFLCEEGRCSTEQFTHAFRTEIDLKAHRTACHSRSRAEARQNRHIDLQFSYAPRHSRRNEGVVGGEDYEEVDRYSRQGRVARAGTRGAQQSRRGSWRYKREEEDREVAAAVRASVAAQQQEEARRSEDQEEGGRPKKEEAAARGPEDPRGPRRSPRTQGEGPGPKETSTNGPVSQEAFSVTGPAAPGCVGVPGALPPPSPKLKDEDFPSLSASTSSSCSTAATPGPVGLALPYAIPARGRSAFQEEDFPALVSSVPKPGTAPTSLVSAWNSSSSSKKVAQPPLSAQATGSGQPTRKAGKGSRGGRKGGPPFTQEEEEDGGPALQELLSTRPTGSVSSTLGLASIQPSKVGKKKKVGSEKPGTTLPQPPPATCPPGALQAPEAPASRAEGPVAVVVNGHTEGPAPARSAPKEPPGLPRPLGSFPCPTPQEDFPALGGPCPPRMPPPPGFSAVVLLKGTPPPPPPGLVPPISKPPPGFSGLLPSPHPACVPSPATTTTTKAPRLLPAPRAYLVPENFRERNLQLIQSIRDFLQSDEARFSEFKSHSGEFRQGLISAAQYYKSCRDLLGENFQKVFNELLVLLPDTAKQQELLSAHTDFCNREKPLSTKSKKNKKSAWQATTQQAGLDCRVCPTCQQVLAHGDASSHQALHAARDDDFPSLQAIARIIT [ZNF598] | -0.223 | 0.108 | -1.86 | -0.526 | 51.6 | 51.1
3 | MAAAGLVAVAAAAEYSGTVASGGNLPGVHCGPSSGAGPGFGPGSWSRSLDRALEEAAVTGVLSLSGRKLREFPRGAANHDLTDTTRADLSRNRLSEIPIEACHFVSLENLNLYQNCIRYIPEAILNLQALTFLNISRNQLSTLPVHLCNLPLKVLIASNNKLVSLPEEIGHLRHLMELDVSCNEIQTIPSQIGNLEALRDLNVRRNHLVHLPEELAELPLIRLDFSCNKITTIPVCYRNLRHLQTITLDNNPLQSPPAQICIKGKVHIFKYLNIQACKIAPDLPDYDRRPLGFGSCHEELYSSRPYGALDSGFNSVDSGDKRWSGNEPTDEFSDLPLRVAEITKEQRLRRESQYQENRGSLVVTNGGVEHDLDQIDYIDSCTAEEEEAEVRQPKGPDPDSLSSQFMAYIEQRRISHEGSPVKPVAIREFQKTEDMRRYLHQNRVPAEPSSLLSLSASHNQLSHTDLELHQRREQLVERTRREAQLAALQYEEEKIRTKQIQRDAVLDFVKQKASQSPQKQHPLLDGVDGECPFPSRRSQHTDDSALCMSLSGLNQVGCAATLPHSSAFTPLKSDDRPNALLSSPATETVHHSPAYSFPAAIQRNQPQRPESFLFRAGVRAETNKGHASPLPPSAAPTTDSTDSITGQNSRQREEELELIDQLRKHIEYRLKVSLPCDLGAALTDGVVLCHLANHVRPRSVPSIHVPSPAVPKLTMAKCRRNVENFLEACRKIGVPQEQLCLPLHILEEKGLSQVAVTVQALLELAPPKQQQHQLSAV [LRCH3] | 0.108 | -0.0597 | 0.000114 | 1.36 | 46.9 | 48.8
4 | MAAAGPSTRASSAAAAAALSRRGRRGRCDETAAAKTGAPGPASGPSLLVLSPPLLQPPLPPRPEESGCAGCLEPPGEAAALPCGHSLCRGCAQRAADAAGPGCPRCRARGPGWARRRARDDGQADSEVLGECARRSQPERCRPRRDGGAAAAGPRPEQEPRAAPAEPDFIFRAPIKLSKPGELREEYESLRKLREEKLQEEKPSEDQIHKLLPEDTETGKRKMDEQKKRDEPLVLKTNLERCPARLSDSENEEPSRGQMTQTHRSAFVSKNNSYSLAFLAGKLNSKVERSQSCSDTAQERAKSRVRAVPGNKAKVTTMTPASNPIIGVLLSTQNNRCVSAPDLTIEKRLPFSSLSSLASLHKPERSVSPESNDSISEELNHFKPIVCSPCTPPKRLPDGRVLSPLIIKSTPRNLNRSLQKQTSYEASPRILKKWEQIFQERQIKKTLSKATLTSLAPEMGEELLGSEGIHSSKEKPLVAVNTRLSGGQVLSEYTGPTSADLDHFPSVSQTKAEQDSDNKSSTEIPLETCCSSELKGGGSGTSLEREQFEGLGSTPDAKLDKTCISRAMKITTVNSVLPQNSVLGGVLKTKQQLKTLNHFDLTNGVLVESLSEEPLPSLRRGRKRHCKTKHLEQNGSLKKLRQTSGEVGLAPTDPVLREMEQKLQQEEEDRQLALQLQRMFDNERRTVSRRKGSVDQYLLRSSNMAGAK [RNF169] | -0.158 | 0.36 | 0.359 | 0.101 |  | 51.8
5 | MAAAGRLPSSWALFSPLLAGLALLGVGPVPARALHNVTAELFGAEAWGTLAAFGDLNSDKQTDLFVLRERNDLIVFLADQNAPYFKPKVKVSFKNHSALITSVVPGDYDGDSQMDVLLTYLPKNYAKSELGAVIFWGQNQTLDPNNMTILNRTFQDEPLIMDFNGDLIPDIFGITNESNQPQILLGGNLSWHPALTTTSKMRIPHSHAFIDLTEDFTADLFLTTLNATTSTFQFEIWENLDGNFSVSTILEKPQNMMVVGQSAFADFDGDGHMDHLLPGCEDKNCQKSTIYLVRSGMKQWVPVLQDFSNKGTLWGFVPFVDEQQPTEIPIPITLHIGDYNMDGYPDALVILKNTSGSNQQAFLLENVPCNNASCEEARRMFKVYWELTDLNQIKDAMVATFFDIYEDGILDIVVLSKGYTKNDFAIHTLKNNFEADAYFVKVIVLSGLCSNDCPRKITPFGVNQPGPYIMYTTVDANGYLKNGSAGQLSQSAHLALQLPYNVLGLGRSANFLDHLYVGIPRPSGEKSIRKQEWTAIIPNSQLIVIPYPHNVPRSWSAKLYLTPSNIVLLTAIALIGVCVFILAIIGILHWQEKKADDREKRQEAHRFHFDAM [ITFG1] | 0.327 | -0.259 | 0.328 | 0.713 | 55.9 | 57.5
6 | MAAAGVVSGKIIYEQEGVYIHSSCGKTNDQDGLISGILRVLEKDAEVIVDWRPLDDALDSSSILYARKDSSSVVEWTQAPKERGHRGSEHLNSYEAEWDMVNTVSFKRKPHTNGDAPSHRNGKSKWSFLFSLTDLKSIKQNKEGMGWSYLVFCLKDDVVLPALHFHQGDSKLLIESLEKYVVLCESPQDKRTLLVNCQNKSLSQSFENLLDEPAYGLIQAGLLDRRKLLWAIHHWKKIKKDPYTATMIGFSKVTNYIFDSLRGSDPSTHQRPPSEMADFLSDAIPGLKINQQEEPGFEVITRIDLGERPVVQRREPVSLEEWTKNIDSEGRILNVDNMKQMIFRGGLSHALRKQAWKFLLGYFPWDSTKEERTQLQKQKTDEYFRMKLQWKSISQEQEKRNSRLRDYRSLIEKDVNRTDRTNKFYEGQDNPGLILLHDILMTYCMYDFDLGYVQGMSDLLSPLLYVMENEVDAFWCFASYMDQMHQNFEEQMQGMKTQLIQLSTLLRLLDSGFCSYLESQDSGYLYFCFRWLLIRFKREFSFLDILRLWEVMWTELPCTNFHLLLCCAILESEKQQIMEKHYGFNEILKHINELSMKIDVEDILCKAEAISLQMVKCKELPQAVCEILGLQGSEVTTPDSDVGEDENVVMTPCPTSAFQSNALPTLSASGARNDSPTQIPVSSDVCRLTPA [TBC1D15] | -0.164 | -0.17 | -0.47 | 0.539 | 49.7 | 50.2
7 | MAAAGWRDGSGQEKYRLVVVGGGGVGKSALTIQFIQSYFVTDYDPTIEDSYTKQCVIDDRAARLDILDTAGQEEFGAMREQYMRTGEGFLLVFSVTDRGSFEEIYKFQRQILRVKDRDEFPMILIGNKADLDHQRQVTQEEGQQLARQLKVTYMEASAKIRMNVDQAFHELVRVIRKFQEQECPPSPEPTRKEKDKKGCHCVIF [RRAS2] | -0.172 | -0.0849 | 1.24 | 1.12 | 55.4 | 55.3
8 | MAAALFVLLGFALLGTHGASGAAGFVQAPLSQQRWVGGSVELHCEAVGSPVPEIQWWFEGQGPNDTCSQLWDGARLDRVHIHATYHQHAASTISIDTLVEEDTGTYECRASNDPDRNHLTRAPRVKWVRAQAVVLVLEPGTVFTTVEDLGSKILLTCSLNDSATEVTGHRWLKGGVVLKEDALPGQKTEFKVDSDDQWGEYSCVFLPEPMGTANIQLHGPPRVKAVKSSEHINEGETAMLVCKSESVPPVTDWAWYKITDSEDKALMNGSESRFFVSSSQGRSELHIENLNMEADPGQYRCNGTSSKGSDQAIITLRVRSHLAALWPFLGIVAEVLVLVTIIFIYEKRRKPEDVLDDDDAGSAPLKSSGQHQNDKGKNVRQRNSS [BSG] | 0.205 | -0.00749 | -0.849 | -2.75 | 59.1 | 59.8
9 | MAAALLARASGPARRALCPRAWRQLHTIYQSVELPETHQMLLQTCRDFAEKELFPIAAQVDKEHLFPAAQVKKMGGLGLLAMDVPEELGGAGLDYLAYAIAMEEISRGCASTGVIMSVNNSLYLGPILKFGSKEQKQAWVTPFTSGDKIGCFALSEPGNGSDAGAASTTARAEGDSWVLNGTKAWITNAWEASAAVVFASTDRALQNKGISAFLVPMPTPGLTLGKKEDKLGIRGSSTANLIFEDCRIPKDSILGEPGMGFKIAMQTLDMGRIGIASQALGIAQTALDCAVNYAENRMAFGAPLTKLQVIQFKLADMALALESARLLTWRAAMLKDNKKPFIKEAAMAKLAASEAATAISHQAIQILGGMGYVTEMPAERHYRDARITEIYEGTSEIQRLVIAGHLLRSYRS [ACADS] | 0.191 | -0.159 | -1.85 | -3.37 | 55.3 | 53.9
10 | MAAAVVLAAGLRAARRAVAATGVRGGQVRGAAGVTDGNEVAKAQQATPGGAAPTIFSRILDKSLPADILYEDQQCLVFRDVAPQAPVHFLVIPKKPIPRISQAEEEDQQLLGHLLLVAKQTAKAEGLGDGYRLVINDGKLGAQSVYHLHIHVLGGRQLQWPPG [HINT2] | 0.565 | -0.0342 | -0.929 | -2.12 | 54.9 | 54.9
